# Results: the supplement of paper PMC9112550, “Optimization of the antimicrobial peptide Bac7 by deep mutational scanning” (BMC Biology, 2022)
# Tested on: Escherichia coli TOP10
# Assay: shrunken log2 fold change of peptide-encoding DNA abundance (4.5 h post-induction vs induction); higher = less antimicrobial activity (less host growth inhibition)
# Conditions: time post-induction: 4.5 h; library: site-saturation at positions 5, 18, 19, 20
# 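Further: peptides expressed intracellularly from a pBAD plasmid library in pooled LB shake-flask culture, induced with 0.3% L-arabinose, DNA abundance read by NGS, three biological replicates, DESeq2 with apeglm shrinkage.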
row,Sequence,shrunken log2 fold change
1,RRIRGRPPRLPRPRPRPPPKPRP,1.7
2,RRIRLRPPRLPRPRPRPELPPRP,-0.0217
3,RRIRRRPPRLPRPRPRPVWAPRP,0.339
4,RRIRLRPPRLPRPRPRPPKDPRP,0.137
5,RRIRGRPPRLPRPRPRPPMLPRP,0.555
6,RRIRPRPPRLPRPRPRPIKGPRP,0.0468
7,RRIRRRPPRLPRPRPRPYYDPRP,-1.02
8,RRIRPRPPRLPRPRPRPYQCPRP,-0.0702
9,RRIRNRPPRLPRPRPRPKCTPRP,0.119
10,RRIRDRPPRLPRPRPRPTMAPRP,0.695
11,RRIRSRPPRLPRPRPRPHDYPRP,0.0635
12,RRIRKRPPRLPRPRPRPRGEPRP,0.764
13,RRIRCRPPRLPRPRPRPPVNPRP,-0.0382
14,RRIRTRPPRLPRPRPRPTYFPRP,-0.313
15,RRIRNRPPRLPRPRPRPMQFPRP,-0.466
16,RRIRGRPPRLPRPRPRPCFMPRP,0.0852
17,RRIRERPPRLPRPRPRPKVYPRP,-0.126
18,RRIRWRPPRLPRPRPRPTCSPRP,0.0967
19,RRIRFRPPRLPRPRPRPYDVPRP,-0.185
20,RRIRIRPPRLPRPRPRPTRFPRP,0.04
21,RRIRDRPPRLPRPRPRPCLGPRP,-0.015
22,RRIRWRPPRLPRPRPRPSGMPRP,0.104
23,RRIRNRPPRLPRPRPRPWQCPRP,-0.108
24,RRIRGRPPRLPRPRPRPERFPRP,0.969
25,RRIRPRPPRLPRPRPRPWKKPRP,-0.0306

row,Sequence,shrunken log2 fold change
1,RRIRARPPRLPRPRPRPDDPPRP,0.632
2,RRIRDRPPRLPRPRPRPQNPPRP,-0.00133
3,RRIRFRPPRLPRPRPRPHGQPRP,-0.0526
4,RRIRERPPRLPRPRPRPFFTPRP,-0.106
5,RRIRERPPRLPRPRPRPCVCPRP,-0.132
6,RRIRLRPPRLPRPRPRPVPHPRP,-0.128
7,RRIRCRPPRLPRPRPRPPNPPRP,0.761
8,RRIRRRPPRLPRPRPRPITGPRP,0.111
9,RRIRGRPPRLPRPRPRPWTGPRP,-0.0411
10,RRIRVRPPRLPRPRPRPLINPRP,-0.354
11,RRIRSRPPRLPRPRPRPFYIPRP,-0.608
12,RRIRYRPPRLPRPRPRPPKPPRP,0.144
13,RRIRARPPRLPRPRPRPEVDPRP,0.935
14,RRIRMRPPRLPRPRPRPRRYPRP,1.15
15,RRIRYRPPRLPRPRPRPMKSPRP,-0.416
16,RRIRFRPPRLPRPRPRPSDWPRP,0.0908
17,RRIRSRPPRLPRPRPRPNISPRP,0.00233
18,RRIRPRPPRLPRPRPRPAILPRP,-0.339
19,RRIRCRPPRLPRPRPRPIELPRP,-0.0768
20,RRIRGRPPRLPRPRPRPHHRPRP,-0.00334
21,RRIRTRPPRLPRPRPRPYHKPRP,-0.426
22,RRIRLRPPRLPRPRPRPKVTPRP,-0.00182
23,RRIRLRPPRLPRPRPRPRYQPRP,-0.0283
24,RRIRMRPPRLPRPRPRPHLSPRP,-0.0805
25,RRIRIRPPRLPRPRPRPAEMPRP,0.0228

row,Sequence,shrunken log2 fold change
1,RRIRRRPPRLPRPRPRPTSTPRP,0.158
2,RRIRQRPPRLPRPRPRPWSCPRP,-0.462
3,RRIRLRPPRLPRPRPRPDCFPRP,0.19
4,RRIRFRPPRLPRPRPRPCEEPRP,0.178
5,RRIRFRPPRLPRPRPRPADDPRP,-0.053
6,RRIRMRPPRLPRPRPRPYKVPRP,-0.0176
7,RRIRFRPPRLPRPRPRPDMVPRP,-0.499
8,RRIRKRPPRLPRPRPRPISEPRP,0.213
9,RRIRIRPPRLPRPRPRPIQRPRP,-0.265
10,RRIRSRPPRLPRPRPRPVYGPRP,-0.355
11,RRIRQRPPRLPRPRPRPGNCPRP,-0.0905
12,RRIRKRPPRLPRPRPRPGSFPRP,0.133
13,RRIRKRPPRLPRPRPRPPHEPRP,0.491
14,RRIRNRPPRLPRPRPRPVGQPRP,-0.185
15,RRIRFRPPRLPRPRPRPIEFPRP,0.0129
16,RRIRPRPPRLPRPRPRPRFRPRP,0.217
17,RRIRARPPRLPRPRPRPNHMPRP,-0.299
18,RRIRYRPPRLPRPRPRPNRRPRP,-0.023
19,RRIRCRPPRLPRPRPRPWEGPRP,-0.00146
20,RRIRKRPPRLPRPRPRPKYAPRP,0.208
21,RRIRIRPPRLPRPRPRPNRGPRP,-0.203
22,RRIRDRPPRLPRPRPRPASEPRP,0.453
23,RRIRARPPRLPRPRPRPFVYPRP,-0.116
24,RRIRIRPPRLPRPRPRPGLGPRP,0.217
25,RRIRMRPPRLPRPRPRPHHHPRP,-0.412

row,Sequence,shrunken log2 fold change
1,RRIRDRPPRLPRPRPRPCGTPRP,-0.0281
2,RRIRMRPPRLPRPRPRPCIGPRP,0.0503
3,RRIRPRPPRLPRPRPRPCFYPRP,-0.242
4,RRIRERPPRLPRPRPRPGMEPRP,0.00479
5,RRIRCRPPRLPRPRPRPSRDPRP,0.189
6,RRIRDRPPRLPRPRPRPRCYPRP,0.105
7,RRIRQRPPRLPRPRPRPGFHPRP,0.00101
8,RRIRPRPPRLPRPRPRPKFTPRP,-0.141
9,RRIRGRPPRLPRPRPRPEMPPRP,1.48
10,RRIRVRPPRLPRPRPRPLMYPRP,-0.564
11,RRIRIRPPRLPRPRPRPIKCPRP,-0.446
12,RRIRERPPRLPRPRPRPTWCPRP,3.3
13,RRIRPRPPRLPRPRPRPGQEPRP,0.031
14,RRIRVRPPRLPRPRPRPIQVPRP,0.0304
15,RRIRVRPPRLPRPRPRPVIAPRP,-0.0291
16,RRIRPRPPRLPRPRPRPWRKPRP,0.0228
17,RRIRTRPPRLPRPRPRPGQDPRP,-0.102
18,RRIRERPPRLPRPRPRPMPDPRP,0.17
19,RRIRTRPPRLPRPRPRPIVTPRP,1.13
20,RRIRERPPRLPRPRPRPFMYPRP,-0.551
21,RRIRCRPPRLPRPRPRPMCDPRP,0.128
22,RRIRARPPRLPRPRPRPALHPRP,0.651
23,RRIRHRPPRLPRPRPRPCMRPRP,0.0267
24,RRIRVRPPRLPRPRPRPYQTPRP,-0.0531
25,RRIRSRPPRLPRPRPRPEIEPRP,0.0942

row,Sequence,shrunken log2 fold change
1,RRIRVRPPRLPRPRPRPRFVPRP,0.12
2,RRIRMRPPRLPRPRPRPNDAPRP,0.317
3,RRIRTRPPRLPRPRPRPIHTPRP,-0.371
4,RRIRDRPPRLPRPRPRPEHHPRP,0.155
5,RRIRDRPPRLPRPRPRPKPFPRP,0.013
6,RRIRWRPPRLPRPRPRPPFPPRP,0.37
7,RRIRDRPPRLPRPRPRPMGDPRP,0.25
8,RRIRMRPPRLPRPRPRPQPIPRP,-0.0134
9,RRIRPRPPRLPRPRPRPRLHPRP,0.624
10,RRIRARPPRLPRPRPRPGMCPRP,0.494
11,RRIRNRPPRLPRPRPRPLKEPRP,0.00854
12,RRIRLRPPRLPRPRPRPHHNPRP,-0.547
13,RRIRVRPPRLPRPRPRPDQWPRP,-0.0427
14,RRIRERPPRLPRPRPRPTGLPRP,0.235
15,RRIRYRPPRLPRPRPRPWTCPRP,-0.362
16,RRIRPRPPRLPRPRPRPFRGPRP,0.0377
17,RRIRLRPPRLPRPRPRPCMWPRP,-0.0832
18,RRIRVRPPRLPRPRPRPCGTPRP,-0.317
19,RRIRRRPPRLPRPRPRPHDPPRP,-0.0379
20,RRIRGRPPRLPRPRPRPTQIPRP,1.38
21,RRIRCRPPRLPRPRPRPLLRPRP,0.88
22,RRIRARPPRLPRPRPRPYGRPRP,0.0766
23,RRIRTRPPRLPRPRPRPKYIPRP,-0.748
24,RRIRIRPPRLPRPRPRPATYPRP,0.00351
25,RRIRCRPPRLPRPRPRPIFTPRP,-0.48

row,Sequence,shrunken log2 fold change
1,RRIRWRPPRLPRPRPRPPEWPRP,0.36
2,RRIRPRPPRLPRPRPRPMMWPRP,0.0433
3,RRIRCRPPRLPRPRPRPLSRPRP,-0.143
4,RRIRWRPPRLPRPRPRPKHHPRP,-0.208
5,RRIRMRPPRLPRPRPRPASFPRP,0.126
6,RRIRMRPPRLPRPRPRPPMAPRP,0.841
7,RRIRMRPPRLPRPRPRPAWFPRP,0.634
8,RRIRGRPPRLPRPRPRPMYKPRP,0.0271
9,RRIRIRPPRLPRPRPRPFPWPRP,-0.519
10,RRIRGRPPRLPRPRPRPGSQPRP,0.722
11,RRIRKRPPRLPRPRPRPWHRPRP,-0.0754
12,RRIRFRPPRLPRPRPRPMTNPRP,-0.2
13,RRIRIRPPRLPRPRPRPTDKPRP,-0.406
14,RRIRHRPPRLPRPRPRPKFQPRP,-0.0213
15,RRIRCRPPRLPRPRPRPIHIPRP,-0.893
16,RRIRNRPPRLPRPRPRPEIAPRP,-0.0256
17,RRIRFRPPRLPRPRPRPGSSPRP,-0.0565
18,RRIRCRPPRLPRPRPRPTEYPRP,-0.564
19,RRIRSRPPRLPRPRPRPKPDPRP,0.22
20,RRIRIRPPRLPRPRPRPYDTPRP,-0.0277
21,RRIRKRPPRLPRPRPRPHNNPRP,-0.244
22,RRIRNRPPRLPRPRPRPTRPPRP,0.663
23,RRIRPRPPRLPRPRPRPALIPRP,-0.0205
24,RRIRNRPPRLPRPRPRPNKIPRP,-0.658
25,RRIRFRPPRLPRPRPRPENVPRP,-0.0124
